Assay results published in publication PMC7810915 (Computational and Structural Biotechnology Journal, 2019).

Biological target: the molecule itself
Test: NMR relaxation

B1: Smad5 MH1 domain (wild type) (domain or fragment, Homo sapiens)
chain: GPSFTSPAVKRLLGWKQGDEEEKWAEKAVDALVKKLKKKKGAMEELEKALSSPGQPSKCVTIPRSLDGRLQVSHRKGLPHVIYCRVWRWPDLQSHHELKPLDICEFPFGSKQKEVCINPYHYKRVESPVLPP
Kd: 8.3 ± 1.5 mM
